Test results taken from patent US20190085033A1.

How the values were obtained:
BG505 SOSIP T332N gp140 = assay: SPR; conditions: Fab
[1] = target: BG505-gp120 9MUTB (7MUT+N135R/Q328M) (HIV-1, strain BG505); assay: SPR, monomeric gp120
[2] = target: CD4 on human CD4+ T cells (human) (UniProt P01730); assay: flow cytometry, trimer labelled with two fluorescent probes on human CD4+ T cells, 30 mins

Work on PGT121 Fab yielded a Kd (BG505 SOSIP T332N gp140) of 26 nM.

For PGT121 (antibody), the Kd [1] was 1.5 nM.

With “BG505 SOSIP T332N gp140 (other; other documents disagree on this pair)” the percentage of cells bound (double-positive population) [2] was 99.1%.
